Test results published in patent US20220041738A1 (SAITAMA MEDICAL UNIVERSITY, published 2022).
Positions count from the first letter of the chain named. Blank lines part the entries; values can stand above or below the binder they belong to.

Assays:
Assay in all cases: immunofluorescence (legend of FIG. 4)
[1] = target: T1, wild-type human ALK2 on cells (cDNA in pcDEF3) (human, UniProt Q04771 21-509)
T1 construct: also called wild-type ALK2; ALK2 (WT)
T1 sequence: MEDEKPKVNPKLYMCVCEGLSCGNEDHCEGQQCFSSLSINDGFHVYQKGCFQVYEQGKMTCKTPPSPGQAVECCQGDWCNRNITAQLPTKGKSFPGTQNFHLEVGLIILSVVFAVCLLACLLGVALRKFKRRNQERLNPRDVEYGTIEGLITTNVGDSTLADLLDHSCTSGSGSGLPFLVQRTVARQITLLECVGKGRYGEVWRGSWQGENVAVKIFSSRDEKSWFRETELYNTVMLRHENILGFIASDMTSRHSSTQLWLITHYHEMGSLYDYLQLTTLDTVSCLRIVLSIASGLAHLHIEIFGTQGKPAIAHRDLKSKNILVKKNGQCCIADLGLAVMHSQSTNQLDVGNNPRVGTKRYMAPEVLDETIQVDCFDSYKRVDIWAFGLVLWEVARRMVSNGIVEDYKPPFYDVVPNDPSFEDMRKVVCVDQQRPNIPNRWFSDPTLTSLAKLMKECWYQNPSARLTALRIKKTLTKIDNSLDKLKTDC
Procedure: (§1) Mouse C2C12 cells were seeded into a 96-well plate (Greiner Bio-One) at 0.5×10³ cells/well, and cultured in 15% FBS-containing DMEM medium overnight under the conditions of 5% CO₂ at 37° C. On the following day, the C2C12 cells were transfected with each of a wild-type human ALK2 cDNA integrated into pcDEF3; pcDEF3/human ALK2-L196P, pcDEF3/human ALK2-P197_F198delinsL, pcDEF3/human ALK2-R202I, pcDEF3/human ALK2-R206H, pcDEF3/human ALK2-Q207E, pcDEF3/human ALK2-R258S, pcDEF3/human ALK2-G325A, pcDEF3/human ALK2-G328E, pcDEF3/human ALK2-G328R, pcDEF3/human ALK2-G328W, pcDEF3/human ALK2-G356D, and pcDEF3/human ALK2-R375P, which are variants identified in FOP; and pcDEF3 as a control, using Lipofectamine 2000 (Invitrogen), and further cultured overnight.
(§2) The C2C12 cells were fixed with 10% neutral formalin (Nacalai Tesque, Japan) for 20 minutes at room temperature, and then blocked with 10% goat normal serum for 30 minutes. After the blocking agent was removed, purified IgG diluted to 10 μg/mL with the blocking agent was added, and the cells were left for 1 hour at room temperature. After the cells were washed with PBS three times, Goat Alexa 594-conjugated anti-rat IgG (Invitrogen) diluted to 1:1000 with the blocking agent was added, and the cells were left for 1 hour at room temperature. After the cells were washed with PBS three times, the cells were fixed with 10% neutral formalin for 15 minutes at room temperature, and nuclear-stained with DAPI (LifeTechnologies). Fluorescent signals were analyzed with a fluorescence microscope BZ-9000 (Keyence).

[2] = target: T2, human ALK2-L196P on cells (human, UniProt Q04771 21-509)
T2 sequence: T1 sequence with L176P
Procedure: as §1, §2

[3] = target: T3, human ALK2-G356D on cells (human, UniProt Q04771 21-509)
T3 sequence: T1 sequence with G336D
Procedure: as §1, §2

[4] = target: T4, human ALK2-R375P on cells (human, UniProt Q04771 21-509)
T4 sequence: T1 sequence with R355P
Procedure: as §1, §2

- binding result [1]: binds
- binding result [2]: binds
- binding result [3]: binds
- binding result [4]: binds
B1: rat anti-ALK2 monoclonal antibody A2-11E (antibody, V domains shown)
VH: EVQLVETGGGLVQPGRSLKLSCVASGFTFSNYYMYWIRQAPGKGLEWISSINTDGGSTYYPDSVKGRFAISRDNAENTVYLQMNSLRSEDTATYYCAKSTPNIPLAYWGQGTLVTVSS
VL: DIQMTQSPSLLSASVGDRVTLSCKASQNIYKYLNWFQQKLGEAPKLLIYYSNSLQTGIPSRFSGSGSGTDFTLTISSLQPEDVAIYFCFQYSSGPTFGPGTKLELKR
notes: Rat monoclonal IgG from a hybridoma; also called 11E2

- binding result [1]: binds
- binding result [2]: binds
- binding result [3]: binds
- binding result [4]: binds
B2: rat anti-ALK2 monoclonal antibody A2-15A (antibody, V domains shown)
VH: EVQLVESGGGLVQPGRSLKLSCAASGFTFSHYYMAWVRQAPTKGLEWVASITNSGGSINYRDSVKGRFTISRDNAKSTLYLQMDSLRSEDTATYYCTREGGENYGGYPPFAYWGQGTLVTVSS
VL: DIVLTQSPALAVSLGQRATISCRANQGVSLSRYNLMHWYQQKPGQKPKLLIYRSSNLASGIPARFSGSGSGTDFTLTINPVQADDIATYYCQQSRESPFTFGAGTKLELKR
notes: Rat monoclonal IgG from a hybridoma; also called 15A6
